Assay results: US20180194839A1 (Novartis, published 2018)
Numbering of substitutions follows the chain as printed. Numbers in names are those of the source.

B1: XAB4 (antibody, human IgG1, kappa, V domains shown)
VH: EVQLVESGGDLVQPGGSLRLSCAASGFTFSSYWMSWVRQAPGKGLEWVANIKQDGSEKYYVDSVKGRFTISRDNAKNSLYLQMNSLRAEDTAVYYCARDRGSLYYWGQGTLVTVSS
VL: AIQLTQSPSSLSASVGDRVTITCRPSQGINWELAWYQQKPGKAPKLLIYDASSLEQGVPSRFSGSGSGTDFTLTISSLQPEDFATYYCQQFNSYPLTFGGGTKVEIKR
notes: also called MB435 N56Q
B2: XAB1 (antibody, human IgG1, kappa, V domains shown)
VH: B1 VH
VL: B1 VL with N30I, W31S, E32A, Q56N
notes: human IgG1/kappa monoclonal antibody; also called parental XAB1; XAB1 IgG

What was measured:
[1] = molecular target: T1, recombinant human IFNγ (Roche) (human, UniProt P01579 24-166, limits assumed); assay: ELISA, coated cytokine;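 note: antibodies incubated 3 h at room temperature on cytokine-coated plates, binding read out with alkaline phosphatase-conjugated anti-species IgG secondary antibodies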
T1 construct: also called huIFNγ
T1 sequence (looked up): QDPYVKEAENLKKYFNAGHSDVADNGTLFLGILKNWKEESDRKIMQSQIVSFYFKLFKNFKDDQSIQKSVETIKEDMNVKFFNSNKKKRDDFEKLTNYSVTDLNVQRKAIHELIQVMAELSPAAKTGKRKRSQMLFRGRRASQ

[2] = molecular target: T2, recombinant human TNFα (Novartis) (human, UniProt P01375 77-233); assay: ELISA, coated cytokine;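 note: antibodies incubated 3 h at room temperature on cytokine-coated plates, binding read out with alkaline phosphatase-conjugated anti-species IgG secondary antibodies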
T2 construct: also called huTNFα

[3] = molecular target: T3, recombinant human EGF (Sigma Cat#E9644) (human, UniProt P01133 971-1023); assay: ELISA, coated cytokine;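 note: antibodies incubated 3 h at room temperature on cytokine-coated plates, binding read out with alkaline phosphatase-conjugated anti-species IgG secondary antibodies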
T3 construct: also called huEGF

[4] = molecular target: T4, recombinant human TGFβ2 (Novartis) (human, UniProt P61812 303-414); assay: ELISA, coated cytokine;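 note: antibodies incubated 3 h at room temperature on cytokine-coated plates, binding read out with alkaline phosphatase-conjugated anti-species IgG secondary antibodies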
T4 construct: also called huTGFβ2
T4 sequence (looked up): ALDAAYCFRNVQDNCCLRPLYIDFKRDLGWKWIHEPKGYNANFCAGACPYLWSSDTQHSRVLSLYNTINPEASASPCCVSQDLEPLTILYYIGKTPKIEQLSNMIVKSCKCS

[5] = molecular target: T5, recombinant mouse IL-1β (R&D Systems Cat#401-ML) (mouse, UniProt P10749 118-269); assay: ELISA, coated cytokine
T5 construct: also called mIL-1β
T5 sequence (looked up): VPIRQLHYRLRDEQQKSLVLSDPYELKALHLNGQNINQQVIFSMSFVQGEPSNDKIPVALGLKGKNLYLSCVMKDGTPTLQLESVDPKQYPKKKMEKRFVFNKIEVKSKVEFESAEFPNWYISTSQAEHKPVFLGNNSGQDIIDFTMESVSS

[6] = molecular target: T6, recombinant mouse IL-2 (R&D Systems 402-ML-020/CF) (mouse, UniProt P04351 21-169); assay: ELISA, coated cytokine
T6 construct: also called mIL-2
T6 sequence (looked up): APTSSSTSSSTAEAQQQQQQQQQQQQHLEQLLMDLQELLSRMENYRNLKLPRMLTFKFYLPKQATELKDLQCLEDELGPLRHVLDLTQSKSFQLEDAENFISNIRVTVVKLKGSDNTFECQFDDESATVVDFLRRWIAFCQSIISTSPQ

[7] = molecular target: T7, recombinant mouse IL-18 (MBL Cat#B004-5) (mouse, UniProt P70380 36-192); assay: ELISA, coated cytokine
T7 construct: also called mIL-18
T7 sequence (looked up): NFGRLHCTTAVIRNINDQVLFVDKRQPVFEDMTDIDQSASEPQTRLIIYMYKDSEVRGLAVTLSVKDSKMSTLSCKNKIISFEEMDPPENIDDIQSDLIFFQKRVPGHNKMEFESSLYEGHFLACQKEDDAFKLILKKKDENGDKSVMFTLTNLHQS

[8] = molecular target: T8, recombinant mouse IL-23 (R&D Systems Cat#1887-ML) (mouse, UniProt Q9EQ14 22-196; P43432 23-335); assay: ELISA, coated cytokine
T8 construct: also called mIL-23
T8 sequence (looked up) 1: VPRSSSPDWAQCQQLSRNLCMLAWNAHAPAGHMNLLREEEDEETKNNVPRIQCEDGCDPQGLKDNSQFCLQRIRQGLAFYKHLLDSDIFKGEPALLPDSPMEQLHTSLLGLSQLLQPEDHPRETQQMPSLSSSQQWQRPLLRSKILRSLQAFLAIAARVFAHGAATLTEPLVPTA
T8 sequence (looked up) 2: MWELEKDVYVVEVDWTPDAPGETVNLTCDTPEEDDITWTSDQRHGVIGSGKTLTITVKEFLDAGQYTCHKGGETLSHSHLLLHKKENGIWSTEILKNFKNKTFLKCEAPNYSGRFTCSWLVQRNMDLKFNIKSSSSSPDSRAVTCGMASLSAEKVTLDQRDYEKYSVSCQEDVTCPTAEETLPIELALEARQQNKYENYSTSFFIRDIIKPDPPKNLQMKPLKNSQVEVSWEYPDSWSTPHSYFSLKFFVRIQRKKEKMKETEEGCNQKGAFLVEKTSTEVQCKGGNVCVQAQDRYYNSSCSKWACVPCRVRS

[9] = molecular target: T9, recombinant mouse TNFα (R&D Systems Cat#410-MT) (mouse, UniProt P06804 80-235); assay: ELISA, coated cytokine
T9 construct: coated at 0.5 µg/ml; also called mTNFα
T9 sequence (looked up): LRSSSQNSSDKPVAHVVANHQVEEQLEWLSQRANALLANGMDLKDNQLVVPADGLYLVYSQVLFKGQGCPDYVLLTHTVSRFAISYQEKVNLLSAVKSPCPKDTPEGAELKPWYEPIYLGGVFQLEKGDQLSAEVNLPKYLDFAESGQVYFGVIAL

[10] = molecular target: T10, recombinant rat IL-4 (R&D Systems Cat#504-RL/CF) (rat, UniProt P20096 25-147, limits assumed); assay: ELISA, coated cytokine
T10 sequence (looked up): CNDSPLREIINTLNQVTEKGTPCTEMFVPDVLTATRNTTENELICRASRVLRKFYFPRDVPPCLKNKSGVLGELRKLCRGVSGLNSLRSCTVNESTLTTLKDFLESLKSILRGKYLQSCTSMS

[11] = molecular target: T11, recombinant rat IL-6 (R&D Systems Cat#506-RL-010) (rat, UniProt P20607 25-211); assay: ELISA, coated cytokine
T11 sequence (looked up): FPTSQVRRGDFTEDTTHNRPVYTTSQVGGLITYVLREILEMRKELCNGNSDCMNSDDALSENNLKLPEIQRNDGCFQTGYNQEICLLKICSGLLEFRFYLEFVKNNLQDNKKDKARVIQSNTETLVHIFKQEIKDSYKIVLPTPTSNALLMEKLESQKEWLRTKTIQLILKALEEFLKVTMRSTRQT

[12] = molecular target: T11, recombinant rat IL-6 (R&D Systems …); assay: ELISA, coated cytokine, Ab 10 µg/ml
[13] = molecular target: recombinant rat IL-12 (R&D Systems Cat#1760-RL/CF) (rat); assay: ELISA, coated cytokine, Ab 10 µg/ml
[14] = molecular target: T12, human IL-17A (construct not stated) (human, UniProt Q16552 24-155, limits assumed); assay: competition ELISA: biotinylated huIL-17A pre-incubated with antibody, binding to coated huIL-17RA
T12 construct: also called huIL-17A; human IL-17A biotin
T12 sequence: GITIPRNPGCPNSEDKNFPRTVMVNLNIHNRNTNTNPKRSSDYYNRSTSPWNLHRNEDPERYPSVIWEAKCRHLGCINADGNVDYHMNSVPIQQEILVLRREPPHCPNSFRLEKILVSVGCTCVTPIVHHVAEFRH

T3 sequence (P01133 971-1023 limits assumed): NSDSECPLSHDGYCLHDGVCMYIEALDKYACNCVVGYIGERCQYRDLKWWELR
T2 sequence (P01375 77-233 limits assumed): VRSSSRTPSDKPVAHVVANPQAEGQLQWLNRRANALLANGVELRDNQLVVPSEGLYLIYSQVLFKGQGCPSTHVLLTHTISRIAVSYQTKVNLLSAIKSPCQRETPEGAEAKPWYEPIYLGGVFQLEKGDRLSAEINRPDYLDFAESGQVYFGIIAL

Binder	binding result [1]	binding result [2]	binding result [3]	binding result [4]	binding result [5]	binding result [6]	binding result [7]	binding result [8]	binding result [9]	binding result [10]	binding result [11]	O.D. [12] [O.D.]	O.D. [13] [O.D.]	IC50 [14] [nM]
B1	no binding (tested: 10 µg/ml)	no binding (tested: 10 µg/ml)	no binding (tested: 10 µg/ml)	no binding (tested: 10 µg/ml)	no binding (tested: 10 µg/ml)	no binding (tested: 10 µg/ml)	no binding (tested: 10 µg/ml)	no binding (tested: 10 µg/ml)	no binding (tested: 10 µg/ml)	no binding (tested: 10 µg/ml)	no binding (tested: 10 µg/ml)	0.021	0.009	0.321
B2	no binding (tested: 10 µg/ml)	no binding (tested: 10 µg/ml)	no binding (tested: 10 µg/ml)	no binding (tested: 10 µg/ml)	no binding (tested: 10 µg/ml)	no binding (tested: 10 µg/ml)	no binding (tested: 10 µg/ml)	no binding (tested: 10 µg/ml)	no binding (tested: 10 µg/ml)	no binding (tested: 10 µg/ml)	no binding (tested: 10 µg/ml)	0	-0.007	0.83
